Assay results as given in paper PMC11838001.

Target: E-cadherin (human (endogenous in NHEK))
Test: FRET or BRET; FLIM-FRET in fixed, permeabilized NHEK cells, untreated or treated with 6 μM CHIR99021 for 48 hours; β-catenin labelled by antibodies as donor (Alexa Fluor 488), E-cadherin as acceptor (Alexa Fluor 555); FRET efficiency from regions at cell-cell junctions, dual exponential fit

Sequence of β-catenin (P35222 whole entry): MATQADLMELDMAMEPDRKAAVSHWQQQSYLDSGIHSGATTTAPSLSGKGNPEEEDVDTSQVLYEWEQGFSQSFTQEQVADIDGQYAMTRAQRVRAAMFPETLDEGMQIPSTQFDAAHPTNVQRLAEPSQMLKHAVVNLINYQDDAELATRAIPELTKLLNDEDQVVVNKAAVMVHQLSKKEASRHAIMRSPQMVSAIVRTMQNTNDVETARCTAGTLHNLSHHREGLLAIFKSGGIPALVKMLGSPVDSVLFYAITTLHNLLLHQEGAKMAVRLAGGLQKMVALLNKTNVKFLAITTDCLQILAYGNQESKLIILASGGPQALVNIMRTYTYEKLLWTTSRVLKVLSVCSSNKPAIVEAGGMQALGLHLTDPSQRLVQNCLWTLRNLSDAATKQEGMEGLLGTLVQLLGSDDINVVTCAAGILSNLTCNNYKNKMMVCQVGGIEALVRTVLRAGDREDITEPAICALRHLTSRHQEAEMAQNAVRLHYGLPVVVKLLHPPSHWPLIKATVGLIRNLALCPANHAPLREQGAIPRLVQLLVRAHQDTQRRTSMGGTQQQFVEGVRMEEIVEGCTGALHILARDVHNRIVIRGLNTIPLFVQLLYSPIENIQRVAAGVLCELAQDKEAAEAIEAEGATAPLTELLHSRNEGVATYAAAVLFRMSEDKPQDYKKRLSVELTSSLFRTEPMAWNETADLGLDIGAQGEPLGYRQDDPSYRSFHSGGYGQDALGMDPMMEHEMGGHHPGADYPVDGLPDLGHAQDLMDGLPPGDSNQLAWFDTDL
Sequence of E-cadherin (human (endogenous in NHEK)) (P12830 23-882): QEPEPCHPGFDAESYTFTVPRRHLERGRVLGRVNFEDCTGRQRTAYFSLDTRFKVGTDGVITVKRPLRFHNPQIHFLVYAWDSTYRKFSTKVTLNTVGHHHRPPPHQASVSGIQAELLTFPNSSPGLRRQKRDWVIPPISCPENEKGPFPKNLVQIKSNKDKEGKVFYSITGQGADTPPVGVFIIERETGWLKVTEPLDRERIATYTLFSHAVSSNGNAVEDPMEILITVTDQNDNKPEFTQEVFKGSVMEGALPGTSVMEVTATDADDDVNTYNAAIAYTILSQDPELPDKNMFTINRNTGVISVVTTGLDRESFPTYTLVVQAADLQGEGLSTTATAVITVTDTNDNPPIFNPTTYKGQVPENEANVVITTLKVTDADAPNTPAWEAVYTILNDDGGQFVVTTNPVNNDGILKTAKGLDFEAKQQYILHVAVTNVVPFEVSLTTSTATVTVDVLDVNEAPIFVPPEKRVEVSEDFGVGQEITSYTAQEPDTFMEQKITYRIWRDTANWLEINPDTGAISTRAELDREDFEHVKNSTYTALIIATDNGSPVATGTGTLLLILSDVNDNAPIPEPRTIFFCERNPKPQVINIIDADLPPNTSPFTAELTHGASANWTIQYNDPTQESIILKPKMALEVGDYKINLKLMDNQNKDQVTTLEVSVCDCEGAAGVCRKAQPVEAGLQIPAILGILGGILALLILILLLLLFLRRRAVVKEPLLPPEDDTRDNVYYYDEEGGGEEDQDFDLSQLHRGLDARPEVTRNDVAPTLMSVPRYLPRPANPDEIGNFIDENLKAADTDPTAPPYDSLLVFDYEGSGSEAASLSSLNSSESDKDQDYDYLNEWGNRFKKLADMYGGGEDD

fold change of FRET efficiency, CHIR-treated against untreated cells: 3 fold
Substance: β-catenin (from UniProt P35222 1-781) (natural protein)
